Publication PMC5548840, “The FAD synthetase from the human pathogen Streptococcus pneumoniae: a bifunctional enzyme exhibiting activity-dependent redox requirements” (Scientific Reports, 2017)
One block for each molecule: values may come before it.

Key:
SpnFADS [1] = target: T1, SpnFADS (Streptococcus pneumoniae, UniProt A0A0H2UPY5); assay: isothermal titration calorimetry; assay type: binding; details: 20 mM PIPES pH 7.0, 20 °C, free enzyme
T1 construct: gene SP_1110; full length (modules 1-186 FMNAT, 187-305 RFK); N-terminal His6-PreScission tag removed; codon-optimised synthetic gene in modified pET-15b, E. coli BL21 Star (DE3); 34,521 Da; mainly monomer
T1 sequence (A0A0H2UPY5 entry or part of it): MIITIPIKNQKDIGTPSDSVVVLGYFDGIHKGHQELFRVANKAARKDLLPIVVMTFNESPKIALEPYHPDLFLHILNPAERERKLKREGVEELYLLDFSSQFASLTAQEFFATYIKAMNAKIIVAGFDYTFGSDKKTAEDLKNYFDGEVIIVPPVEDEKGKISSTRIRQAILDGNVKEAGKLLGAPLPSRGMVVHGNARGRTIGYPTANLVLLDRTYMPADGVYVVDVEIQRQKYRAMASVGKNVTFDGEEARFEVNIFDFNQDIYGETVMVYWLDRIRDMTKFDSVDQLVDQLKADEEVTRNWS
Source text: isothermal titration calorimetry on SpnFADS

SpnFADS [2] = target: T1, SpnFADS; assay: HPLC of flavin products, steady-state FMNAT activity; assay type: biochemical; details: 20 mM PIPES pH 7.0, 25 °C
Source text: HPLC of flavin products, steady-state FMNAT activity on SpnFADS

SpnFADS [3] = target: T1, SpnFADS; assay: HPLC of flavin products, steady-state RFK activity; assay type: biochemical; details: saturating ATP (412 μM), 20 mM PIPES pH 7.0, 25 °C, 0.8 mM MgCl2, no dithionite
Source text: HPLC of flavin products, steady-state RFK activity on SpnFADS

[4] = SEC; 20 uM pure SpnFADS on a calibrated Superdex 200 10/300 GL column, 50 mM Tris/HCl, pH 8.0, 150 mM NaCl; freshly purified fraction considered as monomeric
[5] = target: FAD synthetase from Streptococcus pneumoniae (SpnFADS) (Streptococcus pneumoniae); assay: cross-linking; pure SpnFADS in 50 mM KHPO4, pH 8.0, with BS3 crosslinker for 2 h at 4 °C, then 15% SDS-PAGE
[6] = target: FAD synthetase from Streptococcus pneumoniae (SpnFADS) (Streptococcus pneumoniae); assay: atomic force microscopy; 0.5 uM SpnFADS on mica, no ligand; 20 mM PIPES, pH 6.0, 2 mM DTT, 0.8 mM MgCl2, room temperature
[7] = target: FAD synthetase from Streptococcus pneumoniae (SpnFADS) (Streptococcus pneumoniae); assay: atomic force microscopy; 0.5 uM SpnFADS on mica, with 250 uM ADP; 20 mM PIPES, pH 6.0, 2 mM DTT, 0.8 mM MgCl2, room temperature
[8] = target: FAD synthetase from Streptococcus pneumoniae (SpnFADS) (Streptococcus pneumoniae); assay: atomic force microscopy; 0.5 uM SpnFADS on mica, with 250 uM ATP; 20 mM PIPES, pH 6.0, 2 mM DTT, 0.8 mM MgCl2, room temperature
[9] = target: FAD synthetase from Streptococcus pneumoniae (SpnFADS) (Streptococcus pneumoniae); assay: atomic force microscopy; 0.5 uM SpnFADS on mica, with 250 uM ATP and 50 uM RF; 20 mM PIPES, pH 6.0, 2 mM DTT, 0.8 mM MgCl2, room temperature
[10] = target: FAD synthetase from Streptococcus pneumoniae (SpnFADS) (Streptococcus pneumoniae); assay: atomic force microscopy; 0.5 uM SpnFADS on mica, with 250 uM ADP and 50 uM FMN; 20 mM PIPES, pH 6.0, 2 mM DTT, 0.8 mM MgCl2, room temperature
[11] = target: FAD synthetase from Streptococcus pneumoniae (SpnFADS) (Streptococcus pneumoniae); assay: atomic force microscopy; 0.5 uM SpnFADS on mica, with 250 uM ATP and 50 uM FMN; 20 mM PIPES, pH 6.0, 2 mM DTT, 0.8 mM MgCl2, room temperature
[12] = target: FAD synthetase from Streptococcus pneumoniae (SpnFADS) (Streptococcus pneumoniae); assay: atomic force microscopy; 0.5 uM SpnFADS on mica, with 50 uM FAD and 250 uM PPi; 20 mM PIPES, pH 6.0, 2 mM DTT, 0.8 mM MgCl2, room temperature
[13] = 0.8 mM MgCl2, 4 mM sodium dithionite, 10 mM glucose, 0.5 U/mL glucose oxidase, reduced flavin, single site (FMNAT)

Molecule: Nc1ncnc2c1ncn2[C@@H]1O[C@H](COP(=O)(O)OP(=O)(O)O)[C@@H](O)[C@H]1O [ADP]
- K d (μM) (SpnFADS [1]; no MgCl2, single site): 4.1 ± 20% μM

Molecule: Nc1ncnc2c1ncn2[C@@H]1O[C@H](COP(=O)(O)OP(=O)(O)OP(=O)(O)O)[C@@H](O)[C@H]1O [ATP]
- K d (μM) (SpnFADS [1]; 0.8 mM MgCl2, single site): 9.4 ± 20% μM
- K m ^ATP (μM) (SpnFADS [2]; FMN 27.7 µM for kcat, 0.8 mM MgCl2, 3 mM sodium dithionite): 31.6 ± 10% µM

Molecule: Cc1cc2nc3c(=O)[nH]c(=O)nc-3n(C[C@H](O)[C@H](O)[C@H](O)CO)c2cc1C [RF]
- K m ^RF (μM) (SpnFADS [3]): 0.9 ± 10% μM

Molecule: Cc1cc2c(cc1C)N(C[C@H](O)[C@H](O)[C@H](O)COP(=O)(O)OP(=O)(O)OC[C@H]1O[C@@H](n3cnc4c(N)ncnc43)[C@H](O)[C@@H]1O)c1[nH]c(=O)[nH]c(=O)c1N2 [reduced FAD]
- K d (μM) (SpnFADS [1]; [13]): 12.5 ± 20% μM

Molecule: Cc1cc2c(cc1C)N(C[C@H](O)[C@H](O)[C@H](O)COP(=O)(O)O)c1[nH]c(=O)[nH]c(=O)c1N2 [reduced FMN]
- K d (SpnFADS [1]; [13]): 0.8 ± 20% μM
- K m ^RF (μM) (SpnFADS [2]; saturating ATP (252 μM), 0.8 mM MgCl2, 3 mM sodium dithionite (flavin reduced)): 9.8 ± 10% µM

Molecule: FAD synthetase from Streptococcus pneumoniae (SpnFADS)
- percent of the protein in the main peak at ~14.5 mL (monomers or dimers) [4]: ∼96% of the protein

- stoichiometry N [5]: 2
- % of features that are dimers [6]: 3%
- % of features that are monomers [6]: 97%
- % of molecules in dimers [6]: 6%
- % of molecules in monomers [6]: 94%
- % of features that are dimers [7]: 7%
- % of features that are monomers [7]: 60%
- % of features that are tetramers [7]: 20%
- % of features that are trimers [7]: 13%
- % of molecules in dimers [7]: 7%
- % of molecules in monomers [7]: 31%
- % of molecules in tetramers [7]: 47%
- % of molecules in trimers [7]: 20%
- % of features that are dimers [8]: 12%
- % of features that are monomers [8]: 70%
- % of features that are trimers [8]: 18%
- % of molecules in dimers [8]: 16%
- % of molecules in monomers [8]: 47%
- % of molecules in trimers [8]: 37%
- % of features that are dimers [9]: 20%
- % of features that are monomers [9]: 73%
- % of features that are trimers [9]: 7%
- % of molecules in dimers [9]: 30%
- % of molecules in monomers [9]: 54%
- % of molecules in trimers [9]: 16%
- % of features that are dimers [10]: 15%
- % of features that are monomers [10]: 63%
- % of features that are trimers [10]: 22%
- % of molecules in dimers [10]: 19%
- % of molecules in monomers [10]: 40%
- % of molecules in trimers [10]: 41%
- % of features that are dimers [11]: 7%
- % of features that are monomers [11]: 73%
- % of features that are trimers [11]: 20%
- % of molecules in dimers [11]: 9%
- % of molecules in monomers [11]: 50%
- % of molecules in trimers [11]: 41%
- % of features that are dimers [12]: 7%
- % of features that are monomers [12]: 73%
- % of features that are trimers [12]: 20%
- % of molecules in dimers [12]: 9%
- % of molecules in monomers [12]: 50%
- % of molecules in trimers [12]: 41%
Molecule: FAD synthetase from Streptococcus pneumoniae (SpnFADS) (enzyme)
